WO2013139956A1 (dated 2013)
Ends that are not written are not given here. * marks the point of attachment. Biotin = O=C1N[C@H]2[C@H](CS[C@H]2CCCCC(=O)*)N1

B1: anti-lactadherin antibody 346B6 (antibody, IgG1, V domains shown)
VH: EFQLQQSGPELVKPGASVRISCKASGYSFTDYNMNWVKQSDGKTLEWIGVINPDYGTTNNNQRFRGKATLTLDLSSSTAYMQLNSLTSEDSAVYYCARGGDYGAGYALDYWGQGTSVTVSS
VL: QIVLTQSPAIMSASPGEKVTMTCSASSSVSYMYWYQQKPGSSPRLLIYDTSNLASGVPVRFSGSGSGTSYSLTISRMEAEDAATYYCQQWSSYPPTFGAGTKLELKR
notes: VH identical to that of 311A7; also called hybridoma 346B6; LMBP 9490CB
B2: chimeric 311A7 antibody (antibody, V domains shown)
VH: B1 VH
VL: QIVLTQSPAIMSASPGEKVTITCSASSSVSYMYWFQQKPGTSPKLWIYSTSNLASGVPARFSGSGSGTSYSLTISRMEAEDAATYYCQQRSSYPRTFGGGTKLEIKR
B3: anti-lactadherin antibody 311A7 (antibody, IgG1, V domains shown)
VH: B1 VH
VL: B2 VL
notes: also called murine 311A7; hybridoma 311A7
B4: anti-lactadherin antibody 399A12 (antibody, V domains shown)
VH: QVTLKESGPGVLQSSQTLSLTCSFSGFSLSTSGLGVIWIRQPSGAGLEWLAQIYWDDNKRYNPSLKSRLTISKDTSRNQVFLKITPVDTADTATYYCARRTFYDYDEGFYAMDYWGQGTSVTVSS
VL: DIQMTQTTSSLSASLGDRVTITCRASQDISNYLNWYQQKPDGTIKLLIYYASRLHSGVPSRFSGSGSGTDYSLTISNLEQEDIATYFCQQGNTLPLTFGAGTKLELKR
notes: Murine monoclonal, kappa light chain; Variable regions identical to those of 416H9; also called hybridoma 399A12; LMBP 9491CB
B5: anti-lactadherin antibody 416H9 (antibody, IgG1, V domains shown)
VH: B4 VH
VL: B4 VL
notes: also called hybridoma 416H9; LMBP 9492CB
B6: anti-lactadherin antibody 215A9 (antibody, IgG1, V domains shown)
VH: QVSLKESGPGILQSSQTLSLTCSFSGFSLSTSGMGVSWIRQPSGKGLEWLAHIYWNDDKRYNPSLKSRLTISKDTSRDQVFLKITSVDTADTATYFCARRPRFYRDYDEGIDFWGQGTTLTVSS
VL: QAVVTQESALTTSPGETVTLTCRSSTGAVTTNNYANWVQEKPDHLFTGLIGGTNNRTPGVPARFSGSLIGDKAALTITGAQTEDEAIYFCALWYSNLWVFGGGTKLTVLG
notes: also called 2154A9; hybridoma 215A9
B7: huMc3 antibody (antibody, V domains shown)
VH: EVQLVQSGAEVKKPGASVKVSCKASGYSFTGYTMHWVKQSPGMNLEWIGLINPYNGGTVYNQKFQDKATLTVDKSTSTAYMELSSLRSEDTAVYFCARRWRYTMDYWGQGTLVTVSS
VL: DIVMTQSPDSLAVSLGERATITCKASQDVSIGVAWYQQKPGQSPKLLIYSASSRYTGVPDRFSGSGSGTDFTLTISSLQAEDVAVYYCQQHYTSPFTFGSGTKVEIK

Assays:
[1] = biological target: T1, peptide … (SEQ ID NO:51), N-terminally biotinylated (human); experiment: ELISA, biotin-peptide on neutravidin plate, antibody 1 ug/ml
T1 sequence (peptide, N-terminally biotinylated): EISQEVRGDVFPSY

[2] = biological target: T2, human lactadherin (human, UniProt Q08431 24-387); experiment: cell-based or functional assay
T2 sequence (looked up): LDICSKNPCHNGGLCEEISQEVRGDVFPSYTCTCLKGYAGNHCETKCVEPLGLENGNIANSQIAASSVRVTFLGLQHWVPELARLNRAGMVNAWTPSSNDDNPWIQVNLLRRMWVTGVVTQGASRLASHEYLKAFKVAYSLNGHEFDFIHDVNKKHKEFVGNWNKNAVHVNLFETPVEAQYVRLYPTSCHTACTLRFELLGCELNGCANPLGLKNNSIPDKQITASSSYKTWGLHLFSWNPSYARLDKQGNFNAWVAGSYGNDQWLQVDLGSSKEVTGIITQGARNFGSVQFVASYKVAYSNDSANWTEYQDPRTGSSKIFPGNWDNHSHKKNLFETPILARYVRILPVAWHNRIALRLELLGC

[3] = biological target: T3, peptide CHNGGLCEEISQEV (SEQ ID NO:83), N-terminally biotinylated (human, cysteine pairing not given here); experiment: ELISA, biotin-peptide on neutravidin plate, antibody 1 ug/ml
T3 peptide: Biotin-CHNGGLCEEISQEV

[4] = biological target: T4, peptide HNGGLCEEISQEVR (SEQ ID NO:82), N-terminally biotinylated (human); experiment: as above
T4 construct: Human lactadherin 14-mer with part of the RGD domain at the C-terminus
T4 peptide: Biotin-HNGGLCEEISQEVR

[5] = biological target: T5, peptide EISQEVRGAVFPSY (SEQ ID NO:76), N-terminally biotinylated (human); experiment: as above
T5 peptide: Biotin-EISQEVRGAVFPSY

[6] = biological target: T6, peptide EISQEVAGAVFPSY (SEQ ID NO:79), N-terminally biotinylated (human); experiment: as above
T6 peptide: Biotin-EISQEVAGAVFPSY

[7] = biological target: T7, peptide VFPSYTCTCLKGYA (SEQ ID NO:86), N-terminally biotinylated (human, cysteine pairing not given here); experiment: as above
T7 peptide: Biotin-VFPSYTCTCLKGYA

[8] = biological target: T8, peptide EISQEVAGDVFPSY (SEQ ID NO:74), N-terminally biotinylated (human); experiment: as above
T8 peptide: Biotin-EISQEVAGDVFPSY

[9] = biological target: T9, peptide EISQEVRAAVFPSY (SEQ ID NO:78), N-terminally biotinylated (human); experiment: as above
T9 peptide: Biotin-EISQEVRAAVFPSY

[10] = biological target: T10, peptide EISQEVRADVFPSY (SEQ ID NO:75), N-terminally biotinylated (human); experiment: as above
T10 peptide: Biotin-EISQEVRADVFPSY

[11] = biological target: T11, peptide EISQEVAADVFPSY (SEQ ID NO:77), N-terminally biotinylated (human); experiment: as above
T11 peptide: Biotin-EISQEVAADVFPSY

[12] = biological target: T12, peptide NGGLCEEISQEVRG (SEQ ID NO:81), N-terminally biotinylated (human); experiment: as above
T12 construct: Human lactadherin 14-mer with part of the RGD domain at the C-terminus
T12 peptide: Biotin-NGGLCEEISQEVRG

[13] = biological target: T13, peptide GDVFPSYTCTCLKG (SEQ ID NO:84), N-terminally biotinylated (human, cysteine pairing not given here); experiment: as above
T13 construct: Human lactadherin 14-mer with part of the RGD domain at the N-terminus
T13 peptide: Biotin-GDVFPSYTCTCLKG

[14] = biological target: T14, peptide DVFPSYTCTCLKGY (SEQ ID NO:85), N-terminally biotinylated (human, cysteine pairing not given here); experiment: as above
T14 construct: Human lactadherin 14-mer with part of the RGD domain at the N-terminus
T14 peptide: Biotin-DVFPSYTCTCLKGY

[15] = biological target: T15, peptide EISQEVAAAVFPSY (SEQ ID NO:80), N-terminally biotinylated (human); experiment: as above
T15 peptide: Biotin-EISQEVAAAVFPSY

[16] = biological target: T16, peptide … (SEQ ID NO:74), N-terminally biotinylated (human); experiment: as above
T16 sequence (peptide, N-terminally biotinylated): EISQEVAGDVFPSY

[17] = biological target: T17, peptide … (SEQ ID NO:77), N-terminally biotinylated (human); experiment: as above
T17 sequence (peptide, N-terminally biotinylated): EISQEVAADVFPSY

[18] = biological target: T18, peptide … (SEQ ID NO:75), N-terminally biotinylated (human); experiment: as above
T18 sequence (peptide, N-terminally biotinylated): EISQEVRADVFPSY

| Binder | absorbance 450 nm minus 540 nm [1] [absorbance] | inhibition of SKOV-3 cell adhesion to coated human lactadherin, antibody at 5 ug/mL [2] [%] | absorbance 450 nm minus 540 nm [3] [absorbance] | absorbance 450 nm minus 540 nm [4] [absorbance] | absorbance 450 nm minus 540 nm [5] [absorbance] | absorbance 450 nm minus 540 nm [6] [absorbance] | absorbance 450 nm minus 540 nm [7] [absorbance] | absorbance 450 nm minus 540 nm [8] [absorbance] | absorbance 450 nm minus 540 nm [9] [absorbance] | absorbance 450 nm minus 540 nm [10] [absorbance] | absorbance 450 nm minus 540 nm [11] [absorbance] | absorbance 450 nm minus 540 nm [12] [absorbance] | absorbance 450 nm minus 540 nm [13] [absorbance] | absorbance 450 nm minus 540 nm [14] [absorbance] | absorbance 450 nm minus 540 nm [15] [absorbance] | IC50 (nM), inhibition of cell adhesion to human lactadherin [2] [nM] | decrease of SKOV-3 cell migration towards lactadherin, antibody at 5 ug/mL [2] [%] | absorbance 450 nm minus 540 nm [16] [absorbance] | absorbance 450 nm minus 540 nm [17] [absorbance] | absorbance 450 nm minus 540 nm [18] [absorbance] |
| --- | --- | --- | --- | --- | --- | --- | --- | --- | --- | --- | --- | --- | --- | --- | --- | --- | --- | --- | --- | --- |
| B1 | 1 | 25 | 0.02 | 0.02 | 0.02 | 0.07 | 0.03 | 0.02 | 0.02 | 0.01 | 0.01 | 0.02 | 0.02 | 0.03 | 0.01 |  |  |  |  |  |
| B2 |  |  |  |  |  |  |  |  |  |  |  |  |  |  |  | 7.36 |  |  |  |  |
| B3 | 1.47 | > 70 | 0.02 | 0.02 | 0.01 | 0.05 | 0.02 | 0.02 | 0.02 | 0.01 | 0.01 | 0.01 | 0.02 | 0.02 | 0.02 | 7.36 | > 80 |  |  |  |
| B4 | 1.62 | > 70 | 0.02 | 0.02 | 0.03 | 0.03 | 0.03 |  | 0.02 |  |  | 0.03 | 0.03 | 0.04 | 0.02 |  | > 80 | 0.24 | 0.2 | 0.69 |
| B5 | 1.76 | > 70 | 0.03 | 0.03 | 0.02 | 0.05 | 0.03 |  | 0.02 |  |  | 0.02 | 0.03 | 0.03 | 0.02 |  | > 80 | 0.25 | 0.19 | 0.7 |
| B6 | 1.1 | > 70 | 0.03 | 0.03 | 0.1 | 0.03 | 0.05 |  | 0.02 |  |  | 0.03 | 0.04 | 0.04 | 0.02 |  |  | 0.52 | 0.23 | 0.74 |
| B7 |  | > 70 | 0.09 | 0.08 | 0.06 | 0.04 | 0.07 | 0.04 | 0.06 | 0.03 | 0.05 | 0.09 | 0.08 | 0.09 | 0.04 | 6.48 |  |  |  |  |
